The values that follow come from the supplement of paper PMC5998384.

Data set [1] concerns HeLa Kyoto. Put plainly: solubility in G1/S (NP-40 vs SDS abundance) (log2 ratio); higher = more soluble. To be noted: cell cycle stage: G1/S.
In data set [2] the test system is HeLa Kyoto. Put plainly: thermal stability score vs G1/S (z-score of summed log2 fold changes over temperatures); higher = more thermally stable than in G1/S.
The subject of data set [3] is HeLa Kyoto. In words: melting temperature (median over replicates), in situ; higher = more thermally stable.
Data set [4] deals with HeLa Kyoto. In words: solubility change mitosis vs G1/S (difference of NP-40 vs SDS log2 ratios) (log2 ratio difference); higher = more soluble in mitosis.
Where [5] appears, read: cell cycle stage: early G1 (4.5 h after nocodazole release).
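Throughout, for melting temperature (median over replicates), in situ: HeLa Kyoto cells synchronized by double thymidine or nocodazole block, proteins quantified by TMT10plex mass spectrometry, three independent biological replicates.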
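Throughout, for solubility change mitosis vs G1/S (difference of NP-40 vs SDS log2 ratios): synchronized HeLa Kyoto cells (double thymidine block for G1/S, nocodazole release for mitosis), protein amounts in NP-40 versus SDS lysates quantified by mass spectrometry, three biological replicates.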
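Throughout, for solubility in G1/S (NP-40 vs SDS abundance): HeLa Kyoto cells arrested at G1/S by double thymidine block, proteins quantified by TMT10plex mass spectrometry in mild NP-40 versus SDS extracts, three biological replicates.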
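Throughout, for thermal stability score vs G1/S (z-score of summed log2 fold changes over temperatures): synchronized HeLa Kyoto cells, proteins quantified by TMT10plex mass spectrometry, three biological replicates, mitosis taken 0.5 h after nocodazole release, G1/S directly after double thymidine block.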

On to “MASGAGGVGGGGGGKIRTRRCHQGPIKPYQQGRQQHQGILSRVTESVKNIVPGWLQRYFNKNEDVCSCSTDTSEVPRWPENKEDHLVYADEESSNITDGRITPEPAVSNTEEPSTTSTASNYPDVLTRPSLHRSHLNFSMLESPALHCQPSTSSAFPIGSSGFSLVKEIKDSTSQHDDDNISTTSGFSSRASDKDITVSKNTSLPPLWSPEAERSHSLSQHTATSSKKPAFNLSAFGTLSPSLGNSSILKTSQLGDSPFYPGKTTYGGAAAAVRQSKLRNTPYQAPVRRQMKAKQLSAQSYGVTSSTARRILQSLEKMSSPLADAKRIPSIVSSPLNSPLDRSGIDITDFQAKREKVDSQYPPVQRLMTPKPVSIATNRSVYFKPSLTPSGEFRKTNQRIDNKCSTGYEKNMTPGQNREQRESGFSYPNFSLPAANGLSSGVGGGGGKMRRERTRFVASKPLEEEEMEVPVLPKISLPITSSSLPTFNFSSPEITTSSPSPINSSQALTNKVQMTSPSSTGSPMFKFSSPIVKSTEANVLPPSSIGFTFSVPVAKTAELSGSSSTLEPIISSSAHHVTTVNSTNCKKTPPEDCEGPFRPAEILKEGSVLDILKSPGFASPKIDSVAAQPTATSPVVYTRPAISSFSSSGIGFGESLKAGSSWQCDTCLLQNKVTDNKCIACQAAKLSPRDTAKQTGIETPNKSGKTTLSASGTGFGDKFKPVIGTWDCDTCLVQNKPEAIKCVACETPKPGTCVKRALTLTVVSESAETMTASSSSCTVTTGTLGFGDKFKRPIGSWECSVCCVSNNAEDNKCVSCMSEKPGSSVPASSSSTVPVSLPSGGSLGLEKFKKPEGSWDCELCLVQNKADSTKCLACESAKPGTKSGFKGFDTSSSSSNSAASSSFKFGVSSSSSGPSQTLTSTGNFKFGDQGGFKIGVSSDSGSINPMSEGFKFSKPIGDFKFGVSSESKPEEVKKDSKNDNFKFGLSSGLSNPVSLTPFQFGVSNLGQEEKKEELPKSSSAGFSFGTGVINSTPAPANTIVTSENKSSFNLGTIETKSASVAPFTCKTSEAKKEEMPATKGGFSFGNVEPASLPSASVFVLGRTEEKQQEPVTSTSLVFGKKADNEEPKCQPVFSFGNSEQTKDENSSKSTFSFSMTKPSEKESEQPAKATFAFGAQTSTTADQGAAKPVFSFLNNSSSSSSTPATSAGGGIFGSSTSSSNPPVATFVFGQSSNPVSSSAFGNTAESSTSQSLLFSQDSKLATTSSTGTAVTPFVFGPGASSNNTTTSGFGFGATTTSSSAGSSFVFGTGPSAPSASPAFGANQTPTFGQSQGASQPNPPGFGSISSSTALFPTGSQPAPPTFGTVSSSSQPPVFGQQPSQSAFGSGTTPNSSSAFQFGSSTTNFNFTNNSPSGVFTFGANSSTPAASAQPSGSGGFPFNQSPAAFTVGSNGKNVFSSSGTSFSGRKIKTAVRRRK [NUP153]”, for which the “solubility in G1/S (log2)” value in the data set on HeLa Kyoto [1] was -0.682. Besides, the thermal stability score was -5.41 with HeLa Kyoto [2] (setting [5]) and -3.58 in the data set with HeLa Kyoto [2] (cell cycle stage: mitosis). Besides, the melting temperature in the data set on HeLa Kyoto [3] (cell cycle stage: G1/S) turned out to be 52.8 °C; with HeLa Kyoto [3] (cell cycle stage: mitosis), 52.6 °C. Moreover, the “solubility change mitosis (log2)” value in the data set on HeLa Kyoto [4] turned out to be 0.507.

“MASGGSGGVSVPALWSEVNRYGQNGDFTRALKTVNKILQINKDDVTALHCKVVCLIQNGSFKEALNVINTHTKVLANNSLSFEKAYCEYRLNRIENALKTIESANQQTDKLKELYGQVLYRLERYDECLAVYRDLVRNSQDDYDEERKTNLSAVVAAQSNWEKVVPENLGLQEGTHELCYNTACALIGQGQLNQAMKILQKAEDLCRRSLSEDTDGTEEDPQAELAIIHGQMAYILQLQGRTEEALQLYNQIIKLKPTDVGLLAVIANNIITINKDQNVFDSKKKVKLTNAEGVEFKLSKKQLQAIEFNKALLAMYTNQAEQCRKISASLQSQSPEHLLPVLIQAAQLCREKQHTKAIELLQEFSDQHPENAAEIKLTMAQLKISQGNISKACLILRSIEELKHKPGMVSALVTMYSHEEDIDSAIEVFTQAIQWYQNHQPKSPAHLSLIREAANFKLKYGRKKEAISDLQQLWKQNPKDIHTLAQLISAYSLVDPEKAKALSKHLPSSDSMSLKVDVEALENSAGATYIRKKGGKVTGDSQPKEQGQGDLKKKKKKKKGKLPKNYDPKVTPDPERWLPMRERSYYRGRKKGKKKDQIGKGTQGATAGASSELDASKTVSSPPTSPRPGSAATVSASTSNIIPPRHQKPAGAPATKKKQQQKKKKGGKGGW [SRP72]”: the “solubility in G1/S (log2)” value in the data set on HeLa Kyoto [1] is -0.278. Moreover, the values for the thermal stability score in the data set on HeLa Kyoto [2] (setting [5]) and in the data set on HeLa Kyoto [2] (cell cycle stage: mitosis) were -0.0233 and 0.35, respectively. Further, the melting temperature was determined as 50.5 °C in the data set on HeLa Kyoto [3] (cell cycle stage: G1/S) and 49.7 °C in the data set on HeLa Kyoto [3] (cell cycle stage: mitosis). Also, the “solubility change mitosis (log2)” value in the data set with HeLa Kyoto [4] was determined as 0.328.

On to “MASGRDERPPWRLGRLLLLMCLLLLGSSARAAHIKKAEATTTTTSAGAEAAEGQFDRYYHEEELESALREAAAAGLPGLARLFSIGRSVEGRPLWVLRLTAGLGSLIPEGDAGPDAAGPDAAGPLLPGRPQVKLVGNMHGDETVSRQVLIYLARELAAGYRRGDPRLVRLLNTTDVYLLPSLNPDGFERAREGDCGFGDGGPSGASGRDNSRGRDLNRSFPDQFSTGEPPALDEVPEVRALIEWIRRNKFVLSGNLHGGSVVASYPFDDSPEHKATGIYSKTSDDEVFKYLAKAYASNHPIMKTGEPHCPGDEDETFKDGITNGAHWYDVEGGMQDYNYVWANCFEITLELSCCKYPPASQLRQEWENNRESLITLIEKVHIGVKGFVKDSITGSGLENATISVAGINHNITTGRFGDFYRLLVPGTYNLTVVLTGYMPLTVTNVVVKEGPATEVDFSLRPTVTSVIPDTTEAVSTASTVAIPNILSGTSSSYQPIQPKDFHHHHFPDMEIFLRRFANEYPNITRLYSLGKSVESRELYVMEISDNPGVHEPGEPEFKYIGNMHGNEVVGRELLLNLIEYLCKNFGTDPEVTDLVHNTRIHLMPSMNPDGYEKSQEGDSISVIGRNNSNNFDLNRNFPDQFVQITDPTQPETIAVMSWMKSYPFVLSANLHGGSLVVNYPFDDDEQGLATYSKSPDDAVFQQIALSYSKENSQMFQGRPCKNMYPNEYFPHGITNGASWYNVPGGMQDWNYLQTNCFEVTIELGCVKYPLEKELPNFWEQNRRSLIQFMKQVHQGVRGFVLDATDGRGILNATISVAEINHPVTTYKTGDYWRLLVPGTYKITASARGYNPVTKNVTVKSEGAIQVNFTLVRSSTDSNNESKKGKGASSSTNDASDPTTKEFETLIKDLSAENGLESLMLRSSSNLALALYRYHSYKDLSEFLRGLVMNYPHITNLTNLGQSTEYRHIWSLEISNKPNVSEPEEPKIRFVAGIHGNAPVGTELLLALAEFLCLNYKKNPAVTQLVDRTRIVIVPSLNPDGRERAQEKDCTSKIGQTNARGKDLDTDFTNNASQPETKAIIENLIQKQDFSLSVALDGGSMLVTYPYDKPVQTVENKETLKHLASLYANNHPSMHMGQPSCPNKSDENIPGGVMRGAEWHSHLGSMKDYSVTYGHCPEITVYTSCCYFPSAARLPSLWADNKRSLLSMLVEVHKGVHGFVKDKTGKPISKAVIVLNEGIKVQTKEGGYFHVLLAPGVHNIIAIADGYQQQHSQVFVHHDAASSVVIVFDTDNRIFGLPRELVVTVSGATMSALILTACIIWCICSIKSNRHKDGFHRLRQHHDEYEDEIRMMSTGSKKSLLSHEFQDETDTEEETLYSSKH [CPD]”, for which, in the data set on HeLa Kyoto [1], the “solubility in G1/S (log2)” value is 0.211. In addition, the thermal stability score was -2.91 with HeLa Kyoto [2] (setting [5]) and -3.88 in the data set with HeLa Kyoto [2] (cell cycle stage: mitosis). Besides, the melting temperature in the data set on HeLa Kyoto [3] (cell cycle stage: G1/S) was 55.5 °C; in the data set on HeLa Kyoto [3] (cell cycle stage: mitosis) it was 53.8 °C. Further, the “solubility change mitosis (log2)” value in the data set with HeLa Kyoto [4] is -0.0862.
